Patent publication US5141947A, “Fibrinolysis-enhancing agents” (Mitsubishi Kasei Corporation, priority 1984, dated 1992)

Test system: thrombus in carotid artery of rabbit
Experiment: in vivo thrombolysis by t-PA, rabbit carotid artery thrombus (Example 4)
Conditions: for Thrombus Protein: 2 h infusion, femoral vein, n=4, saline control 1.97 ± 0.38
Method: The carotid artery of a rabbit was exposed from the surrounding tissue under anesthesia by pentobarbital. The exposed artery was surrounded with absorbent cotton soaked with glacial acetic acid and allowed to stay for 3 hours to form thrombus by the damage done to the endorthelium. The thus formed thrombus was tested for dissolution. Immediately after removing out the cotton, physiological saline in which the substance to be tested had been dissolved was injected through the femoral vein. The infusion was continued over 2 hours. After the infusion, the arterial segment wherein the thrombus had been formed was cut out and the thrombus mass was removed out under a microscope. The thrombus was dissolved in alkali and the protein was quantitatively measured by phenol method.

B1: t-PA: single or double chain tissue plasminogen activator (t-PA) (protein, UniProt P00750 36-562, looked up)
Tissue-type plasminogen …: SYQVICRDEKTQMIYQQHQSWLRPVLRSNRVEYCWCNSGRAQCHSVPVKSCSEPRCFNGGTCQQALYFSDFVCQCPEGFAGKCCEIDTRATCYEDQGISYRGTWSTAESGAECTNWNSSALAQKPYSGRRPDAIRLGLGNHNYCRNPDRDSKPWCYVFKAGKYSSEFCSTPACSEGNSDCYFGNGSAYRGTHSLTESGASCLPWNSMILIGKVYTAQNPSAQALGLGKHNYCRNPDGDAKPWCHVLKNRRLTWEYCDVPSCSTCGLRQYSQPQFRIKGGLFADIASHPWQAAIFAKHRRSPGERFLCGGILISSCWILSAAHCFQERFPPHHLTVILGRTYRVVPGEEEQKFEVEKYIVHKEFDDDTYDNDIALLQLKSDSSRCAQESSVVRTVCLPPADLQLPDWTECELSGYGKHEALSPFYSERLKEAHVRLYPSSRCTSQHLLNRTVTDNMLCAGDTRSGGPQANLHDACQGDSGGPLVCLNDGRMTLVGIISWGLGCGQKDVPGVYTKVTNYLDWIRDNMRP
- thrombolytic effect (t-PA 0.48 mg/kg alone): no thrombolytic effect
- Thrombus Protein (t-PA 0.48 mg/kg alone): 2.45 ± 0.81 mg
- Thrombus Protein (t-PA 0.96 mg/kg alone): 0.40 ± 0.16 mg
